Data published in the nanobody polyreactivity screen of Harvey et al. (2022).

Experiment: yeast display, Sf9 membrane polyspecificity reagent, FACS + sequencing; frameworks hold sequencing errors
In short: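 Galactose induction of a Saccharomyces cerevisiae BJ5465 synthetic nanobody display library ran 36–48 hours. The cells were then stained for 1 hour at 4 °C with 10% biotinylated, detergent-solubilized Sf9 membrane reagent, pulled down on streptavidin microbeads and FACS-sorted into low and high (top ~1%) gates on expression and reagent-binding fluorescence. Labels for polyreactivity follow the gate of origin.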

Sequence | polyreactivity (PSR sort gate)
QVQLVESGGGVVQAGGSLRISCAASGSTFAANAMGWYRQAPGKERELVAAISTSGGRSYYADSVKGRFTISRDNAKNTLYLQMNSLKPEDSAGYYCAAYSRTSDRDFDYWGQGTQVTVSS | high polyreactivity
QVQLVESGGGLVQAGGSLRLSCAASGRTFYHYAMGWYRQAPGKERELVAAITYRGGNTYYADSVKGRFTISRDNAKNTVYLQMNSLKPEDTAVYFCAKQGVRRHYGYDYWGQGTQVTVSS | high polyreactivity
QVQLVESGGGLVQAGGSLRLSCAASGSTFGSNAMGWYREAPGKERELVAAIDANGGSTYYADSVKGRFTISRDNAKNTVYLQMNSLKPEDTAVYYCAAAGYWYYYVPNDYWGQGTQVTVSS | low polyreactivity
QVQLVESGGGLVQAGGSLRLSCAASGSILYTNAMGWYRQAPGKERELVAAITTSGASTYYADSVKGRFTISRDNAKNTVYLQMNSLKPEDTAVYYCAATDYFPYDTYYAHDYWGQGTQVTVSS | high polyreactivity
QVQLVESGGGLVQAGGSLRLSCAASGSTIVYYAMGWYIQAPGKERELVAAITSGGSTYDADSVKGRCTISRDNAKNTVYLQMNSQKPEDTAVYYCHADWWRGDEAYRMYYWGQGTQVTVSS | low polyreactivity
QVQLVESGGGLVQAGGSLRLSCAASGFILYFNAMGWYSQAPGKERELVAAITSDGGSTYYADSVKGRFTISRDNAKNTVYLQMNSLKPEDTAVYYCAADASTWYTEEYWGQGTQVTVSS | low polyreactivity
QVQLVESGGGVVQAGGSLRLSCAASGSIFAGNAMGGSRQAPGKERELVAAITFSAGRTSYADSVKGRFTISRDNAKNTVYFQMNSLKPEDTAVYYCNALLTVRHVKSDYDYWGQGTQVTVSS | low polyreactivity
QVQLVESGGGLVQAVGSHRLSCAASGFIFTSYAMGCYRQAPGKERELVAAITRSGGRTYYADSVKGRFTISRDNAKNTVYLQMNSLKPEDTAVYYCAAVTFYQSPARGYWGQGTQVTVSS | high polyreactivity
QVQLVESGGGLVQAGGSLRLSCAASGSTFHLYAMGWYRQAPGKETEIVAAIRGRGGNTYADSVKGRFTISRDNAKHTVYFQMNSLKPEDTAVSYCATSISEYQDFTRYDYWGQGTQVTVSS | low polyreactivity
QVQLVESWGGLVQAGGSLRLSCADSGYIYDHYDMGWYRQAPGKDRELVAAISRSAGSTYYADSVKGRFTITRDNAKNTVYLQMNSLKPEDSAVYYCAADGKYYHRRPGWPIYDYWGQGTQVTVSS | high polyreactivity
QVQLVESGGGLVQAGGSLRLSCAASGSTFWGNAMGWYRPAPGKERELVAAISNGGSTNYADSVKGRFTISRDNAKNTVNLQMNSLKPEDTAVYYCAADGHTSNGVSLHGYWGQGTQVTVSS | low polyreactivity
QVQLVESGGGLVQAGGSLRLSCAASGLIFHSYAMGWYRQAPGKERELVAAISKRGGSTYYADSVKGRFTISRDNAKNTVYLQMNSLKPEDTAVYYCAAGARGLYDYWGQGTQVTVSS | high polyreactivity
QVQLVESGGGLVQGGGSLRLSCAASGSNLQINAMGWYRQAPGKERELVAANDWGGGDTYYADSVKGRFTISRDNAKNTVYVQMISLKPEDTAVYYCAAEGVTWYLWDFYDIYGYWGQGTQVNVSS | high polyreactivity
QVQLVESGGGLVQAGGSLRLSCAASGFIFSYYAMGWYRQAPGKERELVAAMSSSGSRTYYADSVKGRFTISRDNAKNTVYLQMNSLKPEDTAVYYCAARGWFRGEFDYWGQGTQVTVSS | high polyreactivity
QVQLEESGGGLVQAGGSLRLSCAASGRTFVYNTKGWYRQAPGKERELVAAITSSGGRTSYADSVKGRFTISRDNAKNTVYLQMNSLKPEDTAVYYCAKDRYTSSTQYRRYDYWGQGTQVTVSS | high polyreactivity
QVQLVESGGGLVQAGGSLRLSSAASGYTFGFYGLGWYRQAPGKERELVAAISRSGGGSTYYADSVKGRFTISRDNAKNSVYLQMNSLKPEDSAVYYCNRDFDDEMWGQGTQVTVSS | low polyreactivity
QVQLVESGGGLVQAGGSLRLSCAASGSIFDVYTMGWYRPAPGKERELVAAISWSGGSTFYADSVKGRFTISRDNAKNTVYLQMNSLKPEDTAVYYCAAELSLGNYWYDFWGQGTQVTVSS | high polyreactivity
QVQLVESGGGLVQAGGSLRLSCAASGSIFYRYAMGWYRQAPGKERELVAAIRWSGGSTYYADSVKGRFTISRDNAKNTVYLQMNSLKPEDTAVYYCNGTWAYRGHGYWGQGTQVTVSS | low polyreactivity
QDQLVESAGGLVQAGGSLRLSCAASGSIFTSNAMGWYRQAPGKETELVAAITSSGGSTYYADSVKGRFTISRDNAKNTVYVQMNSLKPEVTAVYYCAGAKFDLSFWLYYWGQGTQVTVSS | low polyreactivity
QVQLVESGGGLVQAGGCLRLSCAASGFTFPFYAMGWYRQAPGKERELVAAITSRGGSTYYADSVKGRFTISRDNAKNTVYLQMNSLKPEHTAVYYCAARYTPRRYYYWGQGTQVTVSS | high polyreactivity
QVQLVESGGGLVQAGGSLRLSCAASGSIFRYYAMGWYRQAPGKEREFVAAINTNDAGTYYADSVKGRFTISRDYAKNTVYLQMNSLKPEDTAVYYCAADTGYRFWYDYWGQGTQVTVSS | high polyreactivity
QVQLVESGGGLVQAGGSLRLTCAASGYTLSVNAKGWSRQAPGKEMDLVATNDFGGGSTYYADSVKGRFTISRDNAKNTVYLQMNSLKREDTAVYYCATDGGAAWGRYYWDYGYWGQGTQVTVSS | low polyreactivity

Sequence | polyreactivity (PSR sort gate)
QVQLVESGGGLVQAGGSLRLSCAASGRIFYYYAMGWYRQAPGKESELVAAISGGGGRTYYADSVKGRFTISRDNAKHTVYLQMNSLKPEDTAVYYCNADYFYRTVNQRYDYWGQGTQVTVSS | high polyreactivity
QVQLVESGGGLVQAGGSLRLSCAASGFTFRDNAMGWYRQAPGKERELVAAITRGGSTYYADSVKGRFTISRDNAKNTVYLQMNSLKPEDTAVYYCAKALYRREYSSGGYYRFDYWGQGTQVTVSS | high polyreactivity
QVQLVESGGGLVQAGGSLRLSCAASGLIFRRYAMGWYRQAPGKERELVAAITRNGGSTYYADSVKGRFTISRDNAKNTVYLQMNSLKPEDTAVYYCAADRYRRRGGLDYWGQGTQVTVSS | high polyreactivity
QVQLVESGGGLVQAGGSLRLSCAASGRIYYWYDMGWYRQAPGKERELVAAISWSGGSTSYADSVKGRFTISRDNAKNTVYLQMNSLKPEDTAVYYCNADLTQYLGPVYEYGYWGQGTQVTVSS | low polyreactivity
QVQLVESGGGLVKAGGSLRLSCAASGRTFLRNAMGWYRQAPGKERELVATITRGGSTYYADSVKGRFTISRDNAKNSVYLQMNSLKPEDTAVYYCAKDITGGFRRPDYGYWGQGTQVTVSS | low polyreactivity
QVQLVESGGGLVQAGGSLRLSCAASGSTFYGYGMGWYRQAPGKERELVAAITGSGDTTYYADSVKGRFTISRDNAKNSVYLQMNSLKPEDTAVYYCNARWHAEYDYWGQGTQVTVSS | low polyreactivity
QVQLVESGGGLVQAGGSLRLSCAASGSIFDYYAMGWYRQAPGKERELVAAISTSTSSTYYADSVKGRFTISRDNAKNTVYLQMNSLKPEDTAVYYCAAEGESQPESPGYDYWGQGTQVTVSS | low polyreactivity
QVQLVESGGGLVQAGCSLRLSCAASGITFVPYAIGWYRQAPGKDRELVAAITGGGSTNYADSVKGRFTISRDNAKNTVYLQMNSLNQEDTAVYYCAKHAYGYYYSRSDYWGQGTQVTVSS | low polyreactivity
QVQLGESGGVLVQAGGSLRLSCSASGSTFYSNAMGWYRQAPVKEREFVAAITGSGGSTYYADSVKGRFTISRDNAQNTVYLQMNSLKPEVTAVYYCAAGTRIYNSWIRFDYWGQGTQVTVSS | high polyreactivity
QVQLVESGGGLVQAGGSLRLSCAASGRIFYPYAMGWYRQAPGKERELVASITWRGGSTYYADSVKGRFTISRDNAKNTVYLQMNSLKPEDTAVYYCAAVPYSYTYVYLSHYDYWGQGTQVTVSS | low polyreactivity
QVQLVESGGGLVHAGGSLRLSCYATGIILDRYTMGWYRQAPATERELVAAISRSGGITYYADSVKGRFTISRDNAKNTVYLQMNSLKQEDTAVYYCAAKYFDHRQTAYEYWGQGTHVTVSS | high polyreactivity
QVQLVESGGGLVQAGGSLRLSCAASGRTFWAYAMVWYRQAPGKERELVADITNGGSTYYADSVKGRFTISRDNAKNTVYLQMNSLKPEDTAVYYCNALTHWAPASYEYDYWGQGTQVTVSS | low polyreactivity
QVQLVESGGGLVQAGGSLRLSCAASGRIFRYYAMGWYRQAPGKERELVAAIRIRGGSTSYADSVKGRFTISRDNAKNTVYLQMNSLKPEDTAVYYCNKRDKVTYSYDYWGQGTQVTVSS | high polyreactivity
QVQLVESGGGLVQAGGSLRLSCAASGSIFISYDIGWYRHAPGKETELVAAIRSRVGSTYYADSVKGRFTISRDNAKNTVYLQMKSLKPEDTAVYYCNKDNAVDRLPWFQVTYEYWGQGTQVTVSS | low polyreactivity
QVQRVESGGGLVQAGGSLRLSCAGCGRIFHYYAMGWYRQAPGKEMELVAAITSSGGSTYYADSVKGRFTISRDHPKNTVYLQMNSLKPEDTAVYYCAAGLIVGRFLRYDYWGQGTQVTVSS | high polyreactivity
QVQLVESGGGLVQAGGSLRLSSAASGYIFQYTAMGCYRQAPGKVRELVAAIRYRGTSTYYADSVKGRFTISRDNAKNTVYLQRNSLKPEDTAVYYCAADRVPGRGFFRYGYWGQGTQVTVSS | high polyreactivity
QVQLQESGGGLVQAGGSLRLSCAASSNNSTLDVMGWYRQAPGKEREFVASIGSGGITNYADSVKGRFTISRDNAKNTVYLQMNSLKPEDTAVYYCAVLNQAYTDLIYWGQGTLVTVSS | high polyreactivity
QVQLVESGGGLVQAGGSLRLSCAASGFIFYYNDMGWYRQAPGKERELVAAISGGVGSTYYADSVKGRFTISRDNAKNTVYLQMNSLKPEDSAVYYCATRRYSLTYGLGYDYWGQGTQVTVSS | low polyreactivity
QVQLVESGGGLVQAGGSLRLSCAASGGIFVRYAMGWYRPAPGKERELVAAISSSGDRTYYADSVKGRFTISRDTAKNTVYLQMNSLKPEDTAVYYCNADRGHDKVDYWGQGTQVTVSS | low polyreactivity
QVQLVETGGGLVQAGGSRRVSCAASGFIFWWYPMGWYRQSPGKERELVAAISGRGGSTYYADSVKRRFTISRDNAKNTVYLQMNSQKPEDTAVYYCAARLPWSYYRTQGYNYGGQGTQVTVSS | high polyreactivity
QVQLVESGGGIVQAGGSLRLSCAASGRTFRRYVMGWYRQAPGKERELVAAITVSGGNTYYADSVKGSFTISRDNAKNTVYLQMNSLKPEDTAVYYCNADAGAIYYRRYHFYYWGQGTQVTVSS | low polyreactivity
